Assay results: publication PMC10653854 (mBio, 2023)
Values joined by “and” are separate entries in the source; they are usually repeats but may differ in a detail not shown here. Equal entries are not always repeated.

Columns and labels:
Conditions in all cases: both partners purified
[1] = biological target: T1, yellow fever virus (YFV) strain Asibi soluble E ectodomain (sE) (yellow fever virus, strain Asibi); test: SPR; pH 8; pr injected over immobilized sE; Biacore T200, 25°C
[2] = biological target: T1, yellow fever virus (YFV) strain Asibi …; test: ITC
[3] = biological target: T1, yellow fever virus (YFV) strain Asibi …; test: SPR; pH 6; pr injected over immobilized sE; Biacore T200, 25°C

B1: recombinant purified yellow fever virus (YFV) pr protein (natural protein)
chain: not shown
In the case of B1, the Kd [1] is reported as 19.7 nM, the koff [1] is reported as 0.00134 s⁻¹ and the kon [1] is reported as 70000 M⁻¹ s⁻¹. The dH [2] was -16.6 kcal/mol and -16.3 kcal/mol, the “stoichiometry N” value [2] was 0.9 and the Kd [3] was 6.2 nM. It also gave a koff [3] of 0.00236 s⁻¹ and a kon [3] of 380000 M⁻¹ s⁻¹.
